Reference: patent US20110045489A1, “Polymerases for Incorporating Modified Nucleotides” (NEW ENGLAND BIOLABS, INC., priority 2008, published 2011)

B1: 9° N exo-L408S/P410V: 9° N DNA polymerase mutant (protein, UniProt Q56366 1-775, looked up, variant D141A E143A L408S P410V)
DNA polymerase: MILDTDYITENGKPVIRVFKKENGEFKIEYDRTFEPYFYALLKDDSAIEDVKKVTAKRHGTVVKVKRAEKVQKKFLGRPIEVWKLYFNHPQDVPAIRDRIRAHPAVVDIYEYDIPFAKRYLIDKGLIPMEGDEELTMLAFAIATLYHEGEEFGTGPILMISYADGSEARVITWKKIDLPYVDVVSTEKEMIKRFLRVVREKDPDVLITYNGDNFDFAYLKKRCEELGIKFTLGRDGSEPKIQRMGDRFAVEVKGRIHFDLYPVIRRTINLPTYTLEAVYEAVFGKPKEKVYAEEIAQAWESGEGLERVARYSMEDAKVTYELGREFFPMEAQLSRLIGQSLWDVSRSSTGNLVEWFLLRKAYKRNELAPNKPDERELARRRGGYAGGYVKEPERGLWDNIVYLDFRSSYVSIIITHNVSPDTLNREGCKEYDVAPEVGHKFCKDFPGFIPSLLGDLLEERQKIKRKMKATVDPLEKKLLDYRQRAIKILANSFYGYYGYAKARWYCKECAESVTAWGREYIEMVIRELEEKFGFKVLYADTDGLHATIPGADAETVKKKAKEFLKYINPKLPGLLELEYEGFYVRGFFVTKKKYAVIDEEGKITTRGLEIVRRDWSEIAKETQARVLEAILKHGDVEEAVRIVKEVTEKLSKYEVPPEKLVIHEQITRDLRDYKATGPHVAVAKRLAARGVKIRPGTVISYIVLKGSGRIGDRAIPADEFDPTKHRYDAEYYIENQVLPAVERILKAFGYRKEDLRYQKTKQVGLGAWLKVKGKK
B2: Mma exo-L417P/Y418A/S420T: exonuclease minus mutant Mma DNA polymerase, SEQ ID NO:23 (protein, listed as Methanococcus maripaludis)
chain: MESLIDLDYNSDDLCIYLYLINSIIKEKDFKPYFYVNSTDKEQILEFLKDYEKKHKLDSEISKMIENIETVKKIVFDENYQEKELSKVTVKYPNNVKTVREILMEFERLYEYDIPFVRRYLIDNSVIPTSTWDFENNKKIDNKIPDFKTVSFAIAVYCNKEPNPKKDPIIMASFSSKDFNTVVSTKKFDHEKLEYVKDEKELIKRIIEILKEYDIIYTYNGDNFDFPYLKKRAESFGLELKLGKNDEKIKITKGGMNSKSYIPGRVHIDLYPIARRLLNLTKYRLENVTEALFDVKKVDVGHENIPKMWDNLDETLVEYSHQDAYYTQRIGEQFLPLEIMFSRVVNQSLYDINRMSSSQMVEYLLLKNSYKMGVIAPNRPSGKEYQKRIRSSYEGGYVKEPLKGIHEDIVSMDFLSPAPTIIMSHNLSPETIDCTCCSDEENGENEEILGHKFCKKSIGIIPKTLMDLINRRKKVKKVLREKAEKGEFDEEYQILDYEQRSIKVLANSHYGYLAFPMARWYSRDCAEITTHLGRQYIQKTIEEAENFGFKVIYADTDGFYSKWADDKEKLSKYELLEKTREFLKNINNTLPGEMELEFEGYFKRGIFVTKKKYALIDENEKITVKGLEVVRRDWSNVSKNTQKNVLNALLKEGSVENAKKVIQDTIKELKDGKVNNEDLLIHTQLTKRIEDYKTTAPHVEVAKKILKSGNRVNTGDVISYIITSGNKSISERAEILENAKNYDTNYYIENQILPPVIRLMEALGITKDELKDSKKQYTLHHFLK
modifications: (1)..(784) exo_ L417P/Y418A/S420T mutant

Tests used:
Assay type in all cases: biochemical
modified nucleotide = assay: Screen of DNA polymerase mutants for modified nucleotide incorporation
Text: In order to determine the extent of 3′-modified nucleotide incorporation by archaeon DNA polymerases, the titration assay described by Gardner and Jack (2002) was used. In this assay, the efficiency of incorporation of chain terminators was judged by the size of the reaction products in a polymerization reaction. As the efficiency of chain-terminator incorporation increased, the average reaction product size decreased because polymerization was more often halted by terminator addition. By comparing the amount of terminator required to give the same spectrum of reaction products, the relative efficiency of incorporation of the test compounds with the different polymerases was determined.
A complex library of 9° N DNA polymerase mutants was screened for enhanced incorporation of 3′-azido-ddCTP. Several classes of 9° N DNA polymerase mutants were identified with enhanced terminator incorporation. 9° N exo-L408S/Y409A/P410V (Therminator III™, NEB, Inc., Ipswich, Mass.) was purified and characterized in more detail. 9° N DNA polymerase single mutants P410V, L408S, and Y409A and double mutants L408S/P410V, L408S/Y409A, and Y409A/P410V were also purified for comparison. Purification and characterization of DNA polymerase mutants was as described in Gardner and Jack, Nucleic Acids Res. 27:2545-2553 (1999).
A library of 9° N DNA polymerase mutants was constructed by PCR amplification of the polymerase genes using gene-specific primers or codon optimization and gene synthesis Czar et al. Trends Biotechnol 27(2): 63-72 (2009)). The ability to incorporate 3′-modified nucleotide terminators was evaluated by the titration assay for chain terminator incorporation efficiency as described by Gardner and Jack (2002).
Furthermore, the same assay was used to measure 3′-amino-ddCTP incorporation by 9° N exo-L408S/Y409A/P410V (FIG. 3) and to measure rates of incorporation (FIG. 4). Examples of mutants that increased modified nucleotide incorporation by at least two-fold were: […]

3′-azido-ddCTP = assay: Titration assay for chain terminator incorporation efficiency (3′-azido-ddCTP); settings: 3′-azido-ddCTP:dNTP 10:1, 2.5:1, 1:2.5; FIG. 1
Experimental: FIG. 1A-1D show titration assays for chain terminator incorporation efficiency. The relative efficiency of incorporation of modified nucleotide terminators was assessed using the titration assay described in Gardner and Jack Nucleic Acids Research 30: 605-613 (2002). A dye-labeled oligonucleotide primer 5′-AGTGAATTCGAGCTCGGTACCCGGGGATCCTCTAGAGTCGACCTGCAGGC-3′ was annealed to a single-stranded M13mp18 DNA template (Accession No. X02513) and extended by a DNA polymerase in the presence of various ratios of 3′-azido-ddCTP:dNTP (10:1, 2.5:1, 1:2.5) or dNTP (“dN” in the figure) alone in 1×ThermoPol buffer (20 mM Tris-HCl, 10 mM (NH4)2SO4,10 mM KCl, 2 mM MgSO4, 0.1% Triton X-100, pH 8.8 @ 25° C.). […]
In order to determine the extent of 3′-modified nucleotide incorporation by archaeon DNA polymerases, the titration assay described by Gardner and Jack (2002) was used. […] By comparing the amount of terminator required to give the same spectrum of reaction products, the relative efficiency of incorporation of the test compounds with the different polymerases was determined. […]
Once the spectrum of termination products was determined, a comparison of the length, uniformity and clarity of these patterns was used to evaluate incorporation of the terminator. […]
The size distribution of termination products was determined by the relative rates of dNTP and terminator incorporation. […]

3′-O-azidomethyl-dCTP = assay: Titration assay, incorporation of 3′-O-azidomethyl-dCTP
Experimental: Reactions were also performed in the absence of terminators to ensure that synthesis by each DNA polymerase was sufficient to extend primers without premature termination (“dNTP” lanes). Reactions with Therminator™ (NEB, Inc., Ipswich, Mass.) and 9° N exo-L408P/Y409A/S411T DNA polymerase (SEQ ID NO:6) were incubated at 72° C. for 30 minutes. Reactions with E. coli Polymerase I (pol I) (NEB, Inc., Ipswich, Mass.), Sequenase™, (USB, Inc., Cleveland, Ohio), Mma exo- and Mma exo-L417P/Y418A/S420T were incubated at 37° C. for 30 minutes. Each band corresponds to a DNA fragment terminated by a 3′-azido-dCMP. Using a titration assay as described in Gardner and Jack (2002), the relative 3′-azido-dCTP incorporation efficiency was determined for a series of DNA polymerases.
Incorporation of 3′-O-azidomethyl-dCTP by various DNA polymerases was measured using the titration assay as described in Example 1. For each reaction, a ratio of either 10:1 or 1:1 3′-O-azidomethyl-dCTP:dNTP was used to generate a termination pattern. Each band corresponded to a DNA fragment terminated by a 3′-azido-dCMP. A control reaction lacking terminator (dNTP) which yielded large extension products gave assurance that the DNA polymerase was active, and that termination products resulted from terminator incorporation rather than incomplete polymerization. Reactions with Therminator™ (NEB, Inc., Ipswich, Mass.) and 9° N exo-L408P/Y409A/S411T DNA polymerase were incubated at 72° C. for 30 minutes. Reactions with E. coli Polymerase I (pol I) (NEB, Inc., Ipswich, Mass.), Sequenase™ (USB, Inc., Cleveland, Ohio), Mma exo- and Mma exo-L417P/Y418A/S420T were conducted at 37° C. for 30 mintues. Therminator™ (NEB, Inc., Ipswich, Mass.) DNA polymerase was assayed with a 1:1 ratio of acyCTP as control.

Molecule	increase of modified nucleotide incorporation (modified nucleotide)	3′-azido-ddCTP incorporation efficiency relative to wild-type 9° N exo-DNA polymerase (3′-azido-ddCTP)	3′-O-azidomethyl-dCTP incorporation / termination of synthesis (3′-O-azidomethyl-dCTP; 10:1 or 1:1 3′-O-azidomethyl-dCTP:dNTP, 72° C. (9° N) or 37° C., 30 minutes)	relative 3′-O-azidomethyl-dCTP incorporation efficiency, rank order (3′-O-azidomethyl-dCTP; 10:1 or 1:1 3′-O-azidomethyl-dCTP:dNTP, 72° C. or 37° C., 30 minutes, FIG. 8)	effect of the mutations on 3′-O-azidomethyl-dCTP incorporation (3′-O-azidomethyl-dCTP; versus parent exo- polymerase)
B1	at least two-fold	at least 2 fold	–	–	–
B2	at least two-fold	–	incorporated 3′-O-azidomethyl-dCTP efficiently	greater than Mma exo-	increased 3′-O-azidomethyl-dCTP incorporation
